Data published in EP4663654A1 (Hangzhou Sciwind Biosciences Co., Ltd., dated 2025).
Values belong to the binder of their own block, whether it stands above or below them. Starred links: 1 amine or outer side, 2 acyl side, 3 side chain; linkers in the order of their positions; H or OH if unused. Non-standard residues stand in square brackets, D forms with d. *: point of attachment. C20 diacid = O=C(O)CCCCCCCCCCCCCCCCCCC(=O)*; γGlu = O=C(O)[C@H](CCC(=O)[*:2])N[*:1]; Hyp = O=C(O)[C@@H]1C[C@@H](O)CN1

Target: T1, human amylin receptor (AMY3) on CHO-K1/Ga15/AMY3 amylin receptor/CRE-luc cells (human, UniProt P30988 25-474; O60896 24-148)
T1 sequence (looked up) 1: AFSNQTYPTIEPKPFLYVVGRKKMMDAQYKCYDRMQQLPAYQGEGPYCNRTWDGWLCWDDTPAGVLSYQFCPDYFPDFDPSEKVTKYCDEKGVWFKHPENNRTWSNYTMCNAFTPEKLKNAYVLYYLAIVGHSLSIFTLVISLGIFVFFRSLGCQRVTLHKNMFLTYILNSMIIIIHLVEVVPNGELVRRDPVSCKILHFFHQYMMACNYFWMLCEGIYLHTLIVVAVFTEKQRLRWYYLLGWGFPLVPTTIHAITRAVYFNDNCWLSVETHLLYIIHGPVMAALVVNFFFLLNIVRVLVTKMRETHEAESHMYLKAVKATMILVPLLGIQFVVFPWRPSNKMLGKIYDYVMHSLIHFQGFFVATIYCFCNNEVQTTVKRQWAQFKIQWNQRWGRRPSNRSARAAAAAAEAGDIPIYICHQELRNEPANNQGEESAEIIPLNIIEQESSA
T1 sequence (looked up) 2: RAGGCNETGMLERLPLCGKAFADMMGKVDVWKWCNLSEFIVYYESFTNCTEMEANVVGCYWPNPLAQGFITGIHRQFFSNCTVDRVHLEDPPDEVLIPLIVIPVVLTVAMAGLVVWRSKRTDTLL
Test: cell-based or functional assay

- EC50/nM, CRE-luciferase reporter in amylin receptor/CRE-luc CHO cells: 0.09 nM
- Relative activity (the EC50 ratio of Cagrilintide to the compound): 178%
B1: polypeptide derivative M52 (peptide)
peptide: {C20 diacid-γGlu}-ASQLSTAATQRLADFLRHSSHNLKPILPPTNVGSNT[Hyp]-NH2
SMILES: CC[C@H](C)[C@H](NC(=O)[C@@H]1CCCN1C(=O)[C@H](CCCCN)NC(=O)[C@H](CC(C)C)NC(=O)[C@H](CC(N)=O)NC(=O)[C@H](Cc1c[nH]cn1)NC(=O)[C@H](CO)NC(=O)[C@H](CO)NC(=O)[C@H](Cc1c[nH]cn1)NC(=O)[C@H](CCCNC(=N)N)NC(=O)[C@H](CC(C)C)NC(=O)[C@H](Cc1ccccc1)NC(=O)[C@H](CC(=O)O)NC(=O)[C@H](C)NC(=O)[C@H](CC(C)C)NC(=O)[C@H](CCCNC(=N)N)NC(=O)[C@H](CCC(N)=O)NC(=O)[C@@H](NC(=O)[C@H](C)NC(=O)[C@H](C)NC(=O)[C@@H](NC(=O)[C@H](CO)NC(=O)[C@H](CC(C)C)NC(=O)[C@H](CCC(N)=O)NC(=O)[C@H](CO)NC(=O)[C@H](C)NC(=O)CC[C@H](NC(=O)CCCCCCCCCCCCCCCCCCC(=O)O)C(=O)O)[C@@H](C)O)[C@@H](C)O)C(=O)N[C@@H](CC(C)C)C(=O)N1CCC[C@H]1C(=O)N1CCC[C@H]1C(=O)N[C@H](C(=O)N[C@@H](CC(N)=O)C(=O)N[C@H](C(=O)NCC(=O)N[C@@H](CO)C(=O)N[C@@H](CC(N)=O)C(=O)N[C@H](C(=O)N1C[C@H](O)C[C@H]1C(N)=O)[C@@H](C)O)C(C)C)[C@@H](C)O

- EC50/nM, CRE-luciferase reporter in amylin receptor/CRE-luc CHO cells: 0.08 nM
- Relative activity (the EC50 ratio of Cagrilintide to the compound): 163%
B2: polypeptide derivative M51 (peptide)
peptide: {C20 diacid-γGlu}-ASQLSTAATQRLADFLRHSSGNLKPILPPTNVGSNT[Hyp]-NH2
SMILES: CC[C@H](C)[C@H](NC(=O)[C@@H]1CCCN1C(=O)[C@H](CCCCN)NC(=O)[C@H](CC(C)C)NC(=O)[C@H](CC(N)=O)NC(=O)CNC(=O)[C@H](CO)NC(=O)[C@H](CO)NC(=O)[C@H](Cc1c[nH]cn1)NC(=O)[C@H](CCCNC(=N)N)NC(=O)[C@H](CC(C)C)NC(=O)[C@H](Cc1ccccc1)NC(=O)[C@H](CC(=O)O)NC(=O)[C@H](C)NC(=O)[C@H](CC(C)C)NC(=O)[C@H](CCCNC(=N)N)NC(=O)[C@H](CCC(N)=O)NC(=O)[C@@H](NC(=O)[C@H](C)NC(=O)[C@H](C)NC(=O)[C@@H](NC(=O)[C@H](CO)NC(=O)[C@H](CC(C)C)NC(=O)[C@H](CCC(N)=O)NC(=O)[C@H](CO)NC(=O)[C@H](C)NC(=O)CC[C@H](NC(=O)CCCCCCCCCCCCCCCCCCC(=O)O)C(=O)O)[C@@H](C)O)[C@@H](C)O)C(=O)N[C@@H](CC(C)C)C(=O)N1CCC[C@H]1C(=O)N1CCC[C@H]1C(=O)N[C@H](C(=O)N[C@@H](CC(N)=O)C(=O)N[C@H](C(=O)NCC(=O)N[C@@H](CO)C(=O)N[C@@H](CC(N)=O)C(=O)N[C@H](C(=O)N1C[C@H](O)C[C@H]1C(N)=O)[C@@H](C)O)C(C)C)[C@@H](C)O
